This note sets out measurements from PMC5591402, “Facile Affinity Maturation of Antibody Variable Domains Using Natural Diversity Mutagenesis” (Frontiers in Immunology, 2017).

Where no end group is shown, it is not given here.

For assay [1], the target named is T1, TAMRA-labeled α-synuclein peptide (Homo sapiens, also: TAMRA fluorophore, position not given here).
T1 construct: the TAMRA peptide is called the α-synuclein peptide; also called C-terminal α-synuclein peptide; antigen; source: synthetic peptide, bought: Genemed Synthesis Inc
T1 chain: GYQDYEPEA
The assay is described as follows: fluorescence polarisation; VHH titrated (0.8 nM-1.6 µM) against 2 nM TAMRA-labeled α-synuclein peptide; PBS with 0.001% BSA and 0.001% Tween 20; room temperature, 3 h; fit that accounts for antibody not in excess of antigen. As to conditions: both partners purified.

For assay [2], the target named is T1, TAMRA-labeled α-synuclein peptide. Description: fluorescence polarisation; alanine scan: single VHH concentrations (44, 133 and 400 nM) with 2 nM TAMRA-labeled α-synuclein peptide; background-subtracted signal of the mutant divided by that of wild type. As to conditions: both partners purified. (In general: In fluorescence polarisation assays a small probe gives low polarisation when free and higher when bound to something large.)

B1: wild-type N2 VHH antibody (VHH)
VHH: QGQLVESGGGSVQAGGSLRLSCAASGIDSSSYCMGWFRQRPGKEREGVARINGLGGVKTAYADSVKDRFTISRDNAENTVYLQMNSLKPEDTAIYYCAAKFSPGYCGGSWSNFGYWGQGTQVTVSS
notes: also called NbSyn2; wild-type N2 variable domain; not shown: His6, C-terminal, kept
Broadly, the Kd is the equilibrium constant for the complex coming apart. B1 returned a Kd in assay [1] of 57.6 nM.

B2: N2.12 reversion mutant G53 (VHH)
VHH: QGQLVESGGGSVQAGGSLRLSCAASGIDSSSYCMGWFRQRPGKEREGVGRINGWGGIKTAYADSVKDRFTISRDNAENTVYLQMNSLKPEDTAIYYCAAKSSPGYCGGTWSNFGYWGQGTQVTVSS
notes: as the VHH chain of m3 (N2.12) with R53 reverted to the wild-type G53; PDB 2X6M); Kabat numbering
As to B2, the binding result in assay [1] is on record as “binds”.

B3: N2 VHH alanine mutant G99 (VHH)
VHH: QGQLVESGGGSVQAGGSLRLSCAASGIDSSSYCMGWFRQRPGKEREGVARINGLGGVKTAYADSVKDRFTISRDNAENTVYLQMNSLKPEDTAIYYCAAKFSPAYCGGSWSNFGYWGQGTQVTVSS
notes: PDB 2X6M) with the stated change; Kabat numbering
B3: the “binding relative to wild type (normalised polarisation signal)” value in assay [2] is above 50%.

B4: N2.17 reversion mutant S100f (VHH)
VHH: QGQLVESGGGSVQAGGSLRLSCAASGIDSSSYCMGWFRQRPGKEREGVARINGWGGVKTAYADSVKDRFTISRDNAENTVYLQMNSLKPEDTAIYYCAAKSSPGYCGGTWSNFGYWGQGTQVTVSS
notes: as the VHH chain of m4 (N2.17) with F100f reverted to the wild-type S100f; PDB 2X6M); Kabat numbering; also called reversion mutation S100f
With B4, the binding result in assay [1] is listed as “binds”.

B5: N2.12 VHH (VHH)
VHH: QGQLVESGGGSVQAGGSLRLSCAASGIDSSSYCMGWFRQRPGKEREGVGRINGWRGIKTAYADSVKDRFTISRDNAENTVYLQMNSLKPEDTAIYYCAAKSSPGYCGGTWSNFGYWGQGTQVTVSS
notes: PDB 2X6M) with six CDR mutations; Kabat numbering; Selected from the natural diversity library by yeast display; also called N2.12 variant; not shown: His6, C-terminal, kept
B5 registered a Kd in assay [1] of 7.6 nM.

B6: N2 VHH alanine mutant F96 (VHH)
VHH: QGQLVESGGGSVQAGGSLRLSCAASGIDSSSYCMGWFRQRPGKEREGVARINGLGGVKTAYADSVKDRFTISRDNAENTVYLQMNSLKPEDTAIYYCAAKASPGYCGGSWSNFGYWGQGTQVTVSS
notes: as for B3
Take B6: the “binding relative to wild type (normalised polarisation signal)” value in assay [2] is above 50%.

B7: N2.12 reversion mutant F96 (VHH)
VHH: QGQLVESGGGSVQAGGSLRLSCAASGIDSSSYCMGWFRQRPGKEREGVGRINGWRGIKTAYADSVKDRFTISRDNAENTVYLQMNSLKPEDTAIYYCAAKFSPGYCGGTWSNFGYWGQGTQVTVSS
notes: as the VHH chain of m3 (N2.12) with S96 reverted to the wild-type F96; PDB 2X6M); Kabat numbering; also called reversion mutation (F96)
As for B7, the binding result in assay [1] is reported as “binds”.

B8: N2.17 reversion mutant S100d (VHH)
VHH: QGQLVESGGGSVQAGGSLRLSCAASGIDSSSYCMGWFRQRPGKEREGVARINGWGGVKTAYADSVKDRFTISRDNAENTVYLQMNSLKPEDTAIYYCAAKSSPGYCGGSWFNFGYWGQGTQVTVSS
notes: as the VHH chain of m4 (N2.17) with T100d reverted to the wild-type S100d; PDB 2X6M); Kabat numbering
On to B8, for which, in assay [1], the binding result is “binds”.

B9: N2.12 reversion mutant L52b (VHH)
VHH: QGQLVESGGGSVQAGGSLRLSCAASGIDSSSYCMGWFRQRPGKEREGVGRINGLRGIKTAYADSVKDRFTISRDNAENTVYLQMNSLKPEDTAIYYCAAKSSPGYCGGTWSNFGYWGQGTQVTVSS
notes: as the VHH chain of m3 (N2.12) with W52b reverted to the wild-type L52b; PDB 2X6M); Kabat numbering
Turning to B9, the binding result in assay [1] is listed as “binds”.

B10: N2 VHH alanine mutant V55 (VHH)
VHH: QGQLVESGGGSVQAGGSLRLSCAASGIDSSSYCMGWFRQRPGKEREGVARINGLGGAKTAYADSVKDRFTISRDNAENTVYLQMNSLKPEDTAIYYCAAKFSPGYCGGSWSNFGYWGQGTQVTVSS
notes: as for B3
B10: the “binding relative to wild type (normalised polarisation signal)” value in assay [2] is above 50%.

B11: N2 VHH alanine mutant L52b (VHH)
VHH: QGQLVESGGGSVQAGGSLRLSCAASGIDSSSYCMGWFRQRPGKEREGVARINGAGGVKTAYADSVKDRFTISRDNAENTVYLQMNSLKPEDTAIYYCAAKFSPGYCGGSWSNFGYWGQGTQVTVSS
notes: as for B3
Consider B11, for which the “binding relative to wild type (normalised polarisation signal)” value in assay [2] is above 50%.

B12: N2.17 reversion mutant F96 (VHH)
VHH: QGQLVESGGGSVQAGGSLRLSCAASGIDSSSYCMGWFRQRPGKEREGVARINGWGGVKTAYADSVKDRFTISRDNAENTVYLQMNSLKPEDTAIYYCAAKFSPGYCGGTWFNFGYWGQGTQVTVSS
notes: as the VHH chain of m4 (N2.17) with S96 reverted to the wild-type F96; PDB 2X6M); Kabat numbering
Turning to B12, the binding result in assay [1] was “binds”.

B13: N2.12 reversion mutant S100d (VHH)
VHH: QGQLVESGGGSVQAGGSLRLSCAASGIDSSSYCMGWFRQRPGKEREGVGRINGWRGIKTAYADSVKDRFTISRDNAENTVYLQMNSLKPEDTAIYYCAAKSSPGYCGGSWSNFGYWGQGTQVTVSS
notes: as the VHH chain of m3 (N2.12) with T100d reverted to the wild-type S100d; PDB 2X6M); Kabat numbering
Turning to B13, the binding result in assay [1] was “binds”.

B14: N2 VHH alanine mutant S100d (VHH)
VHH: QGQLVESGGGSVQAGGSLRLSCAASGIDSSSYCMGWFRQRPGKEREGVARINGLGGVKTAYADSVKDRFTISRDNAENTVYLQMNSLKPEDTAIYYCAAKFSPGYCGGAWSNFGYWGQGTQVTVSS
notes: as for B3
With B14, in assay [2], the “binding relative to wild type (normalised polarisation signal)” value was above 50%.

B15: N2.16 VHH (VHH)
VHH: QGQLVESGGGSVQAGGSLRLSCAASGIDSSSYCMGWFRQRPGKEREGVGRINGWSGVKTAYADSVKDRFTISRDNAENTVYLQMNSLKPEDTAIYYCAAKSSPGYCGGTWYNFGYWGQGTQVTVSS
notes: PDB 2X6M) with mutations in CDR2 and CDR3; One of the 17 unique variants of the enriched library
For the molecule B15, the binding result in assay [1] is on record as “binds”.

B16: N2 VHH alanine mutant G100c (VHH)
VHH: QGQLVESGGGSVQAGGSLRLSCAASGIDSSSYCMGWFRQRPGKEREGVARINGLGGVKTAYADSVKDRFTISRDNAENTVYLQMNSLKPEDTAIYYCAAKFSPGYCGASWSNFGYWGQGTQVTVSS
notes: as for B3
B16: in assay [2], the “binding relative to wild type (normalised polarisation signal)” value is above 50%.

B17: N2.12 reversion mutant A49 (VHH)
VHH: QGQLVESGGGSVQAGGSLRLSCAASGIDSSSYCMGWFRQRPGKEREGVARINGWRGIKTAYADSVKDRFTISRDNAENTVYLQMNSLKPEDTAIYYCAAKSSPGYCGGTWSNFGYWGQGTQVTVSS
notes: as the VHH chain of m3 (N2.12) with G49 reverted to the wild-type A49; PDB 2X6M); Kabat numbering; also called N2.12 with A49
As for B17, in assay [1], the “fold affinity enhancement relative to wild type” value was above 7 fold.

B18: N2.17 reversion mutant L52b (VHH)
VHH: QGQLVESGGGSVQAGGSLRLSCAASGIDSSSYCMGWFRQRPGKEREGVARINGLGGVKTAYADSVKDRFTISRDNAENTVYLQMNSLKPEDTAIYYCAAKSSPGYCGGTWFNFGYWGQGTQVTVSS
notes: as the VHH chain of m4 (N2.17) with W52b reverted to the wild-type L52b; PDB 2X6M); Kabat numbering
On to B18, for which the binding result in assay [1] was “binds”.

B19: N2 VHH alanine mutant G53 (VHH)
VHH: QGQLVESGGGSVQAGGSLRLSCAASGIDSSSYCMGWFRQRPGKEREGVARINGLAGVKTAYADSVKDRFTISRDNAENTVYLQMNSLKPEDTAIYYCAAKFSPGYCGGSWSNFGYWGQGTQVTVSS
notes: as for B3
As to B19, the “binding relative to wild type (normalised polarisation signal)” value in assay [2] was above 50%.

B20: N2 VHH alanine mutant N100g (VHH)
VHH: QGQLVESGGGSVQAGGSLRLSCAASGIDSSSYCMGWFRQRPGKEREGVARINGLGGVKTAYADSVKDRFTISRDNAENTVYLQMNSLKPEDTAIYYCAAKFSPGYCGGSWSAFGYWGQGTQVTVSS
notes: as for B3
For the molecule B20, in assay [2], the “binding relative to wild type (normalised polarisation signal)” value is above 50%.

B21: N2 VHH alanine mutant G100b (VHH)
VHH: QGQLVESGGGSVQAGGSLRLSCAASGIDSSSYCMGWFRQRPGKEREGVARINGLGGVKTAYADSVKDRFTISRDNAENTVYLQMNSLKPEDTAIYYCAAKFSPGYCAGSWSNFGYWGQGTQVTVSS
notes: as for B3
In the case of B21, the “binding relative to wild type (normalised polarisation signal)” value in assay [2] was above 50%.

B22: N2.5 VHH (VHH)
VHH: QGQLVESGGGSVQAGGSLRLSCAASGIDSSSYCMGWFRQRPGKEREGVARINGLSGVKTAYADSVKDRFTISRDNAENTVYLQMNSLKPEDTAIYYCAAKSSPGYCGGTWFSFGYWGQGTQVTVSS
notes: PDB 2X6M) with mutations in CDR2 and CDR3; One of the 17 unique variants of the enriched library (1-6 mutations in CDR2 and CDR3)
Regarding B22, the binding result in assay [1] is on record as “binds”.

B23: N2 VHH alanine mutant S97 (VHH)
VHH: QGQLVESGGGSVQAGGSLRLSCAASGIDSSSYCMGWFRQRPGKEREGVARINGLGGVKTAYADSVKDRFTISRDNAENTVYLQMNSLKPEDTAIYYCAAKFAPGYCGGSWSNFGYWGQGTQVTVSS
notes: as for B3
Take B23: the “binding relative to wild type (normalised polarisation signal)” value in assay [2] was above 50%.

B24: N2.17 VHH (VHH)
VHH: QGQLVESGGGSVQAGGSLRLSCAASGIDSSSYCMGWFRQRPGKEREGVARINGWGGVKTAYADSVKDRFTISRDNAENTVYLQMNSLKPEDTAIYYCAAKSSPGYCGGTWFNFGYWGQGTQVTVSS
notes: PDB 2X6M) with four CDR mutations; Kabat numbering; Selected from the natural diversity library by yeast display; also called N2.17 variant; not shown: His6, C-terminal, kept
B24 showed a dissociation constant (Kd) in assay [1] of 13.2 nM.

B25: N2 VHH alanine mutant S100f (VHH)
VHH: QGQLVESGGGSVQAGGSLRLSCAASGIDSSSYCMGWFRQRPGKEREGVARINGLGGVKTAYADSVKDRFTISRDNAENTVYLQMNSLKPEDTAIYYCAAKFSPGYCGGSWANFGYWGQGTQVTVSS
notes: as for B3
As to B25, in assay [2], the “binding relative to wild type (normalised polarisation signal)” value is above 50%.
